Test results taken from US20220220204A1.

How the values were obtained:
PD-L1 = PD-L1 (UniProt Q9NZQ7); test: FACS binding
[1] = target: human LAG-3 (LAG-3 effector Jurkat T cells) (human) (UniProt P18627); test: cell-based or functional assay
[2] = target: human PD-L1 (PD-L1 aAPC/CHO-K1 cells) (human) (UniProt Q9NZQ7); test: cell-based or functional assay
human PD-L1 (PD-L1 aAPC/CHO-K1 cells) (human), sequence (Q9NZQ7 19-290): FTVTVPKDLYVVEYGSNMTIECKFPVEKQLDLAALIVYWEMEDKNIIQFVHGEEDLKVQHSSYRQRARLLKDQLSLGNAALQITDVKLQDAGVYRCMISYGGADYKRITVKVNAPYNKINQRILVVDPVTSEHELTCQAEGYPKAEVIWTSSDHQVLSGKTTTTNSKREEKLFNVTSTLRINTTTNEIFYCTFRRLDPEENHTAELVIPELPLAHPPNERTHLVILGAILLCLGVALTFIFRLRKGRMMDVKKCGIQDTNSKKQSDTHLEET

human LAG-3 (LAG-3 effector Jurkat T cells) (human), sequence (P18627 23-525): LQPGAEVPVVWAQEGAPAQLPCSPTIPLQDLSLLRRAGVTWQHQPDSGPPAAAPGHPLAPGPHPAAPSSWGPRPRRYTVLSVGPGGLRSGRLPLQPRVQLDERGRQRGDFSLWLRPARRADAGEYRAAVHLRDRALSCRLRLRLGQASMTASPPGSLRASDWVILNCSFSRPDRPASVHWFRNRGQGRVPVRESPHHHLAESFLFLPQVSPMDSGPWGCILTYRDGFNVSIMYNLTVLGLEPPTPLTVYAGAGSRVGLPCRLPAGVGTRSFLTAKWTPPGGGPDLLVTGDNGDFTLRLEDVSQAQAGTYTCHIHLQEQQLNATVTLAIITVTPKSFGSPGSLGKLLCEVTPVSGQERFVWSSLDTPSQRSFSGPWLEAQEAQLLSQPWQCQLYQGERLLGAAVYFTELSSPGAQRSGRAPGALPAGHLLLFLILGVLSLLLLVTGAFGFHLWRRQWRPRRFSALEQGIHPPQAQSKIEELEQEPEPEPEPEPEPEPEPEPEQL
PD-L1, sequence (Q9NZQ7 19-290): as the sequence (Q9NZQ7 19-290) above

human IgG gave an EC50 (PD-L1) of 8.88 pM.

In the case of 25F7 biosimilar (antibody), the Bottom (LAG-3 blockade bioassay) [1] is reported as 312000, the Log EC50 (LAG-3 blockade bioassay) [1] is reported as 0.841 and the Top (LAG-3 blockade bioassay) [1] is reported as 918000.

With Tecentriq biosimilar (antibody) the Bottom (PD-1/PD-L1 blockade bioassay) [2] was 28700, the EC50 (PD-1/PD-L1 blockade bioassay) [2] was 0.342 and the Log EC50 (PD-1/PD-L1 blockade bioassay) [2] was -0.467. The Top (PD-1/PD-L1 blockade bioassay) [2] was 117000.
